Patent US20240083958A1, “G PROTEIN PEPTIDOMIMETICS” (VRIJE UNIVERSITEIT BRUSSEL, priority 2020, published 2024)
Like-named read-outs stand apart in the source and are kept apart here. One block for each molecule: values may come before it. Bridge positions count the residues as written; N and C are the ends. Square brackets hold non-standard residues; d marks the D form. Primed or numbered codes have the meaning given here. Triazole bridges read from a SMILES are 1,4-linked. Peptide text beside a SMILES is read from it. ξ: configuration not given here. Pra″ = alkyne-bearing residue joined to Azk by a CuAAC triazole staple; Azk = residue with azidated side chain, clicked to Pra; Pra′ = residue with alkynyl side chain, clicked to Azk; Lys(N3) = [N-]=[N+]=NCCCC[C@H](N)C(=O)O; 1Nal = N[C@@H](Cc1cccc2ccccc12)C(=O)O; Cha = N[C@@H](CC1CCCCC1)C(=O)O; Ile(3ξ) = CCC(C)[C@H](N)C(=O)O; S5 = C=CCCC[C@](C)(N)C(=O)O; Pra = C#CC[C@H](N)C(=O)O

Assays:
human β2AR [1] = biological target: T1, human β2AR (Homo sapiens, UniProt P07550, N187E); assay: Radioligand binding assay (RLA) with human β2AR, 3H-dihydroalprenolol (DHA) as radioligand, isoproterenol (agonist) as cold competitor, in presence and absence of the peptidomimetic; parameters: key to Shift: ratio IC50 basal (no peptide) / IC50 with peptidomimetic
T1 construct: made in house; host or cells: Sf9 insect cells (Bac-to-Bac baculovirus); membrane extracts
Description: β2AR365N constructs were expressed in Sf9 insect cells, using the Bac-to-Bac® Baculovirus Expression System. The membrane extracts were prepared from cells that expressed β2AR. Subsequently, the cell pellet was resuspended in a buffer (1 ml buffer/2×1E7 cells) containing 75 mM Tris pH 7.4, 12.5 mM MgCl2, 1 mM EDTA, Leupeptin and PMSF as protease inhibitors. Afterwards the cells were vortexed and homogenized in ice using a small volume Ultraturrax (6×10 sec). The cells were then centrifuged for 15 min at 16000 rcf, in a pre-cooled centrifuge (4° C.) and resuspended in the previous buffer containing 10% sucrose. Finally, the membranes were again homogenized in ice with the small volume Ultraturrax (3×10 sec). The protein concentration in the membrane fragments was determined using a Pierce BCA Protein Assay Kit and the protein concentration was extrapolated from the Bovine Serum Albumine standard curve.
To perform the radioligand competition binding assays, 96-well plates were used. For the assays on β2AR, the membrane extracts as well as the peptides were prepared in a binding buffer (75 mM Tris pH 7.4, 12.5 mM MgCl2, 1 mM EDTA, 0.2% BSA). The ligand (isoproterenol) and radioligand ([^3H]-dihydroalprenolol) were dissolved in ligand buffer (75 mM Tris pH 7.4, 12.5 mM MgCl2, 1 mM EDTA, 0.2% BSA and 0.1% ascorbic acid), at 1 mM and 2 nM, respectively. A ten-fold dilution series of the ligand was prepared to obtain a dose response curve. For each reaction 100 μl membrane extract, 50 μl ligand, 50 μl peptide or binding buffer containing 1% DMSO and 50 μl of radioligand was added to the V-bottom storage plate, with a total volume of 250 μl per well. Afterwards, the plates were incubated at room temperature for 2 h on a plate shaker (150 rpm). The samples were harvested into filter plates and washed with ice cold washing buffer (75 mM Tris pH 7,4) using the 96-well harvester. The plates were dried for 1 h at 50° C. and then sealed to allow the addition of 30 μl scintillation liquid to each well. Finally, the top of each plate was sealed and the plates were placed in a Wallac MICROBETA® Trilux scintillation counter and incubated for 30 min in the dark.
After the Microbeta scintillation counter, the experimental data was further analyzed using Graphpad Prism 6.0. After normalization of the raw data, a nonlinear regression was used to fit the data in a one-site binding model, with the total binding set as 100% and the non-specific binding between 0 and 5%. The IC50 values, obtained from the competition curves, were used to determine the shift for each peptide, which is the ratio of IC50 of the agonist test compound on the basal conformation (e.g. IC50 β2AR with no peptidomimetic) versus the active conformation (e.g. IC50 β2AR+peptidomimetic) of the receptor. For certain peptide analogues, a biphasic binding curve was observed and therefore fitted by a two-site model (nonlinear regression), resulting in two IC50 values (IC50Hi and IC50Lo) and a FractionHi, the fraction of receptors in the active state.
Synthesised peptidomimetics were evaluated using a radioligand binding assay (RLA) with a human β2AR, using ^3H-dihydroalprenolol (DHA) as the radioligand and increasing concentrations of isoproterenol (agonist) as cold competitor. In particular, the pharmacological stabilization of the receptor in the active conformation was evaluated by performing the radioligand displacement assay (RLA) in the presence and absence of the peptidomimetics. This validated assay quantifies the pharmacological stabilization of the receptor in the active conformation by comparing the affinities of an agonist for the basal versus the active GPCR conformer (Pardon et al. (2018) Angewandte Chemie International Edition 57, 5292-5295). During the assay, the binding affinity of an orthosteric agonist for the receptor, in particular isoproterenol for human β2AR, in presence and absence of the allosteric peptidomimetic was determined. […]

human β2AR [2] = biological target: T2, human β2AR (human, UniProt P07550 2-365); assay: cell-based or functional assay
human β2AR [3] = biological target: T2, human β2AR; assay: cell-based or functional assay; remark: listed apart in the source
human β2AR [4] = biological target: T2, human β2AR; assay: cell-based or functional assay; remark: listed apart in the source
human β2AR [5] = biological target: T2, human β2AR; assay: cell-based or functional assay; remark: listed apart in the source
human β2AR [6] = biological target: T2, human β2AR; assay: cell-based or functional assay; remark: listed apart in the source
human β2AR [7] = biological target: T2, human β2AR; assay: cell-based or functional assay; remark: listed apart in the source
[8] = Table 18a overview, averaged values of IC50 shift
[9] = Table 18b overview, averaged values of IC50 shift
[10] = Table 1, ratio IC50 β2AR alone / IC50 β2AR + peptidomimetic
[11] = Table 6, ratio IC50 β2AR alone / IC50 β2AR + peptidomimetic

Molecule: Ac-RDIIQR[AzkHLRPra]YELL-OH (Ac-RDIIQR[Azk]HLR[Pra′]YELL-OH; triazole 7-11) [compound 19]
- Shift (human β2AR [1]; [9]): 5

Molecule: Ac-FN[PraCRDAzk]IQRMHLRQYELL-OH (Ac-FN[Pra′]CRD[Azk]IQRMHLRQYELL-OH; triazole 3-7) [compound 12]
- Shift (human β2AR [1]; Table 8, ratio IC50 β2AR alone / IC50 β2AR + modulator): 37

Molecule: CCC(C)[C@@H]1NC(=O)[C@@H](NC(=O)[C@H](CC(=O)O)NC(=O)[C@H](CCCNC(=N)N)NC(=O)[C@H](CS)NC(=O)[C@H](CC(=O)O)NC(=O)[C@H](CC(N)=O)NC(=O)[C@H](Cc2ccccc2)NC(C)=O)Cc2cn(nn2)CCCC[C@@H](C(=O)N[C@@H](Cc2c[nH]cn2)C(=O)N[C@@H](CC(C)C)C(=O)N[C@@H](CCCNC(=N)N)C(=O)N[C@@H](CCC(N)=O)C(=O)N[C@@H](Cc2ccc(O)cc2)C(=O)N[C@@H](CCC(=O)O)C(=O)N[C@@H](CC(C)C)C(=O)N[C@@H](CC(C)C)C(=O)O)NC(=O)[C@H](CCCNC(=N)N)NC(=O)[C@H](CCC(N)=O)NC1=O (some centres unmarked) [compound 11, Ac-FNDCRD[PraIQRAzk]HLRQYELL-OH] (Ac-FNDCRD[Pra][Ile(3ξ)]QR[Lys(N3)]HLRQYELL-OH; triazole 7-11)
- Shift (human β2AR [1]; Table 5, ratio IC50 β2AR alone / IC50 β2AR + peptidomimetic): 7
- Shift (human β2AR [1]; [8]): 7

Molecule: Ac-FN[S5CRDS5]IQRMHLRQYELL-OH [compound 26]
- Shift (human β2AR [1]; [11]): 2
- Shift (human β2AR [1]; [8]): 2

Molecule: Ac-KFN[Pra′]CRD[Azk]IQRMHLRQYELL-OH (triazole 4-8) [compound 41]
- IC50 (nM) of isoproterenol, [3H]-DHA RLA, peptidomimetic present (human β2AR [4]): 26 nM
- Shift (human β2AR [4]): 44
- Shift (averaged) (human β2AR [3]): 51

Molecule: Ac-KKKFN[Pra″]CRD[Lys(N3)]IQRMHLRQYEFL-OH (triazole 6-10) [compound 62]
- Fraction HI (%) (human β2AR [6]): 91%
- IC50 (nM) of isoproterenol, [3H]-DHA RLA, peptidomimetic present (human β2AR [6]): 17.1 nM
- Shift (human β2AR [6]): 93
- Shift (averaged) (human β2AR [3]): 87

Molecule: Ac-FN[Pra′]CRD[Azk]IQRMHLRQYELL-OH [compound 22]
- Shift (averaged) (human β2AR [7]): 9

Molecule: Ac-KFN[Pra′]CRD[Azk]IQRMHLRQYE[Cha]L-OH (triazole 4-8) [compound 50]
- Fraction HI (%) (human β2AR [2]): 86%
- IC50 (nM) of isoproterenol, [3H]-DHA RLA, peptidomimetic present (human β2AR [2]): 2.6 nM
- Shift (human β2AR [2]): 616
- Shift (averaged) (human β2AR [3]): 373

Molecule: Ac-FNDCRDIIQRMHLRQYEWL-OH [compound 69]
- Fraction HI (%) (human β2AR [6]): 51%
- IC50 (nM) of isoproterenol, [3H]-DHA RLA, peptidomimetic present (human β2AR [6]): 28.9 nM
- Shift (human β2AR [6]): 55
- Shift (averaged) (human β2AR [3]): 27

Molecule: Ac-FNDCRDIIQRMHLRQYEFL-OH [compound 68]
- Fraction HI (%) (human β2AR [6]): 62%
- IC50 (nM) of isoproterenol, [3H]-DHA RLA, peptidomimetic present (human β2AR [6]): 54.6 nM
- Shift (human β2AR [6]): 29
- Shift (averaged) (human β2AR [3]): 35

Molecule: Ac-FNDCRDIIQRMHLRQYELA-OH [compound 79]
- IC50 (nM) of isoproterenol, [3H]-DHA RLA, peptidomimetic present (human β2AR [5]): 849 nM
- Shift (human β2AR [5]): 1
- Shift (averaged) (human β2AR [3]): 1

Other lines, results leading:

- Shift (human β2AR [1]; Table 4, ratio IC50 β2AR alone / IC50 β2AR + peptidomimetic): 2
- Shift (human β2AR [1]; [8]): 3
Molecule: CCC(C)[C@@H]1NC(=O)[C@@](C)(NC(=O)[C@H](CC(=O)O)NC(=O)[C@H](CCCNC(=N)N)NC(=O)[C@H](CS)NC(=O)[C@H](CC(=O)O)NC(=O)[C@H](CC(N)=O)NC(=O)[C@H](Cc2ccccc2)NC(C)=O)CCC/C=C\CCC[C@@](C)(C(=O)N[C@@H](Cc2c[nH]cn2)C(=O)N[C@@H](CC(C)C)C(=O)N[C@@H](CCCNC(=N)N)C(=O)N[C@@H](CCC(N)=O)C(=O)N[C@@H](Cc2ccc(O)cc2)C(=O)N[C@@H](CCC(=O)O)C(=O)N[C@@H](CC(C)C)C(=O)N[C@@H](CC(C)C)C(=O)O)NC(=O)[C@H](CCCNC(=N)N)NC(=O)[C@H](CCC(N)=O)NC1=O (some centres unmarked) [compound 8, Ac-FNDCRD[S5IQRS5]HLRQYELL-OH] (Ac-FNDCRD[S5][Ile(3ξ)]QR[S5]HLRQYELL-OH; staple (Z) 7-11)

- Shift (human β2AR [1]; [10]): 1
- Shift (human β2AR [1]; [9]): 1
Molecule: RDIIQRMHLRQYELL [compound 16, Ac-RDIIQRMHLRQYELL-OH]

- Shift (human β2AR [1]; [10]): 1
- Shift (human β2AR [1]; [9]): 1
Molecule: QRMHLRQYELL [compound 21, Ac-QRMHLRQYELL-OH]

- Shift (human β2AR [1]; [11]): 7
- Shift (human β2AR [1]; [8]): 7
Molecule: Ac-FN[ECRDK]IQRMHLRQYELL-OH [compound 24]

- Shift (human β2AR [1]; Table 18c overview, averaged values of IC50 shift): 49
Molecule: Ac-KKKFN[PraCRDAzk]IQRMHLRQ1-NaIELL-OH (Ac-KKKFN[Pra′]CRD[Azk]IQRMHLRQ[1Nal]ELL-OH; triazole 6-10) [compound 57]

- Shift (human β2AR [1]; Table 3, ratio IC50 β2AR alone / IC50 β2AR + peptidomimetic): 4
- Shift (human β2AR [1]; [8]): 4
Molecule: CCC(C)[C@@H]1NC(=O)[C@@H](NC(=O)[C@H](CC(=O)O)NC(=O)[C@H](CCCNC(=N)N)NC(=O)[C@H](CS)NC(=O)[C@H](CC(=O)O)NC(=O)[C@H](CC(N)=O)NC(=O)[C@H](Cc2ccccc2)NC(C)=O)CCC(=O)NCCCC[C@@H](C(=O)N[C@@H](Cc2c[nH]cn2)C(=O)N[C@@H](CC(C)C)C(=O)N[C@@H](CCCNC(=N)N)C(=O)N[C@@H](CCC(N)=O)C(=O)N[C@@H](Cc2ccc(O)cc2)C(=O)N[C@@H](CCC(=O)O)C(=O)N[C@@H](CC(C)C)C(=O)N[C@@H](CC(C)C)C(=O)O)NC(=O)[C@H](CCCNC(=N)N)NC(=O)[C@H](CCC(N)=O)NC1=O (some centres unmarked) [compound 5, Ac-FNDCRD[EIQRK]HLRQYELL-OH] (HELM PEPTIDE1{[ac].F.N.D.C.R.D.E.[CCC(C)[C@H](N[*:1])C(=O)[*:2]].Q.R.K.H.L.R.Q.Y.E.L.L}$PEPTIDE1,PEPTIDE1,8:R3-12:R3$$$V2.0)

- Fraction HI (%) (human β2AR [2]): 89%
- IC50 (nM) of isoproterenol, [3H]-DHA RLA, peptidomimetic present (human β2AR [2]): 4.7 nM
- Shift (human β2AR [2]): 350
- Shift (averaged) (human β2AR [3]): 350
Molecule: Ac-KKFN[Pra]CRD[Lys(N3)]IQRMHLRQYE[Cha]L-OH (triazole 5-9) [compound 74]

- IC50 (nM) of isoproterenol, [3H]-DHA RLA, peptidomimetic present (human β2AR [5]): 616 nM
- Shift (human β2AR [5]): 1
- Shift (averaged) (human β2AR [3]): 1
Molecule: Ac-FNDCRDIIQRMHLRQAELL-OH [compound 78]

- IC50 (nM) of isoproterenol, [3H]-DHA RLA, peptidomimetic present (human β2AR [5]): 1070 nM
- Shift (human β2AR [5]): 1
- Shift (averaged) (human β2AR [3]): 1
Molecule: Ac-FNDCRDIIQRMHLRQYEAL-OH [compound 76]

- IC50 (nM) of isoproterenol, [3H]-DHA RLA, peptidomimetic present (human β2AR [5]): 175 nM
- Shift (human β2AR [5]): 5
- Shift (averaged) (human β2AR [3]): 5
Molecule: Ac-FNDCRDIIQRMHLRQYALL-OH [compound 77]

- IC50 (nM) of isoproterenol, [3H]-DHA RLA, peptidomimetic present (human β2AR [4]): 31.3 nM
- Shift (human β2AR [4]): 37
- Shift (averaged) (human β2AR [3]): 37
Molecule: Ac-RFN[Pra′]CRD[Azk]IQRMHLRQYELL-OH (triazole 4-8) [compound 40]
